Patent US6485937

How the values were obtained:
[1] = biological target: carboxy terminal domain (CTD) of RNA polymerase II fused to GST (GST-CTD) [GST: P08515]
[2] = biological target: HIV TAT trans-activating protein (wildtype TAT, His-tagged fusion)

B1: FLAG-epitope tagged HIV tat interacting protein of 30 kDa (f-TIP30) (protein)
chain: DYKDDDDKMAETEALSKLREDFRMQNKSVFILGASGETGRVLLKEILEQGLFSKVTLIGRRKLTFDEEAYKNVNQEVVDFEKLDDYASAFQGHDVGFCCLGTTRGKAGAEGFVRVDRDYVLKSAELAKAGGCKHFNLLSSKGADKSSNFLYLQVKGEVEAKVEELKFDRYSVFRPGVLLCDRQESRPGEWLVRKFFGSLPDSWASGHSVPVVTVVRAMLNNVVRPRDKQMELLENKAIHDLGKAHGSLKP
[1]
  in vitro kinase assay (phosphorylation of GST-CTD, [g-32P]ATP, autoradiography): it could phosphorylate the carboxy terminal domain (CTD) of RNA polymerase II fused to GST (GST-CTD) in an in vitro kinase assay
[2]
  stimulation of f-TIP30 kinase activity on GST-CTD substrate (in vitro kinase assay): stimulate the kinase activity of recombinant f-TIP30 on GST-CTD substrate in a dose dependant manner
